Experimental data published in paper PMC7957560, “The Functional Role of Loops and Flanking Sequences of G-Quadruplex Aptamer to the Hemagglutinin of Influenza a Virus”.

Assays:
[1] = target: T1, recombinant hemagglutinin HA1 subunit (rHA, H5) (Influenza A virus A/Vietnam/1203/2004 …, UniProt Q5EP31 17-346); experiment: BLI; rHA immobilized; apparent KD; BLI at 30 C in sodium-potassium phosphate buffer pH 7.4 ([…]; conditions: protein: commercial, label: none (rHA), 5'-biotin (vHA BLI)
[2] = target: T1, recombinant hemagglutinin HA1 subunit …; experiment: BLI; 50 nM control, reference signal; BLI at 30 C in sodium-potassium phosphate buffer pH 7.4 ([…]; conditions: protein: commercial; label: none (rHA); 5'-biotin (vHA BLI)

Row | Binder | Kd [1] | also measured
1 | GGGTGGGTGGGTGGG (structured_DNA) [G7nt-T_T_T] | 0.7 ± 0.2 nM | –
2 | TTGGGGTTATTTTGGGAGGGCGGGGGTT (structured_DNA) [RHA0385] | 0.6 ± 0.3 nM | –
3 | GGGTGGGAGGGTGGG (structured_DNA) [G7nt-T_A_T] | 0.6 ± 0.2 nM | –
4 | TTGGGGTTATTAAGGGAGGGCGGGGGTT (structured_DNA) [G7-TTATTAA_A_C] | – | Kd ([1]; parallel G4, 77% monomer): 0.4 ± 0.2 nM
5 | TTGGGGTTATTTTGGGAGGGCGGG (structured_DNA) [G7n3t] | – | Kd ([1]; parallel G4, 100% monomer): 0.4 ± 0.2 nM
6 | GGGTGGGTGGGAGGG (structured_DNA) [G7nt-T_T_A] | 0.8 ± 0.2 nM | –
7 | TTGGGGTTAGGGAGGGCGGGGGTT (structured_DNA) [G7-TTA_A_C] | – | Kd ([1]; parallel G4, 86% monomer): 0.4 ± 0.2 nM
8 | CGACGCACCATTTGTTTAATATGTTTTTTAATTCCCCTTGTGGTGCGTCG (ssDNA) [control oligonucleotide] | – | binding result [2]: no binding
9 | GGGAGGGAGGGAGGG (structured_DNA) [G7nt-A_A_A] | 0.6 ± 0.4 nM | –
10 | GGGTTATTTTGGGAGGGCGGGGGTT (structured_DNA) [G7n5t] | – | Kd ([1]; parallel G4, 74% monomer): 0.3 ± 0.2 nM
11 | GGGTTATTTTGGGAGGGCGGG (structured_DNA) [G7nt] | – | Kd ([1]; parallel G4, 74% monomer): 0.7 ± 0.3 nM
12 | GGGAGGGTGGGTGGG (structured_DNA) [G7nt-A_T_T] | 0.4 ± 0.2 nM | –
